Data taken from doi:10.1101/2025.04.27.650876, “Embryonic stem cell factors DPPA2/4 facilitate a unique chromatin state in non-small cell lung cancer” (bioRxiv, 2025).

Target: T1, Developmental Pluripotency Associated 2 (DPPA2), endogenous (human (endogenous in NCI-H661), UniProt Q7Z7J5 1-298)
T1 construct: DPPA2, human, endogenous in NCI-H661 non-small cell lung cancer cells; source: endogenous, NCI-H661 whole cell lysate
T1 sequence (looked up): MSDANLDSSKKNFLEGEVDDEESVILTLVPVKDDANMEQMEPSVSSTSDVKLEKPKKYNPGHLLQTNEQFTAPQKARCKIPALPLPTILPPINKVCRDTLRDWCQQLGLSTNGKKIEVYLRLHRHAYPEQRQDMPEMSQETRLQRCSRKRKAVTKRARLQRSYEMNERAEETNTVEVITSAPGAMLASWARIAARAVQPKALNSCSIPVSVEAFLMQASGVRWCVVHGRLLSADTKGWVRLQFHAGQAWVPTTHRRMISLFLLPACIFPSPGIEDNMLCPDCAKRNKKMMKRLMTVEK
Test: affinity purification with mass spectrometry; endogenous DPPA2 or DPPA4 immunoprecipitated from NCI-H661 whole cell lysates (n=4 per condition); enrichment against species matched IgG IP by label-free quantitation; relative iBAQ for stoichiometry
Settings: partners not purified

B1: Developmental Pluripotency Associated 4 (DPPA4), endogenous (natural protein, human (endogenous in NCI-H661), UniProt Q7L190 1-304, looked up)
chain: MLRGSASSTSMEKAKGKEWTSTEKSREEDQQASNQPNSIALPGTSAKRTKEKMSIKGSKVLCPKKKAEHTDNPRPQKKIPIPPLPSKLPPVNLIHRDILRAWCQQLKLSSKGQKLDAYKRLCAFAYPNQKDFPSTAKEAKIRKSLQKKLKVEKGETSLQSSETHPPEVALPPVGEPPALENSTALLEGVNTVVVTTSAPEALLASWARISARARTPEAVESPQEASGVRWCVVHGKSLPADTDGWVHLQFHAGQAWVPEKQEGRVSALFLLPASNFPPPHLEDNMLCPKCVHRNKVLIKSLQWE
notes: DPPA4, human, endogenous in NCI-H661 non-small cell lung cancer cells; source: endogenous, NCI-H661 whole cell lysate
ratio between DPPA2 and DPPA4 (relative iBAQ) in the DPPA2-IP: > 1
